{
  "source": "paper PMC5727538",
  "about": "“Comprehensive analysis of the catalytic and structural properties of a mu-class glutathione s-transferase from Fasciola gigantica” (Scientific Reports, 2017)",
  "target": "the molecule itself",
  "test": "SEC; Superdex 200 10/300 GL on AKTA-FPLC, 20 mM phosphate buffer pH 7.5, 150 mM NaCl, 0.3 mL/min; calibrated with molecular weight markers; elution at 15.4 mL, about 50 kDa",
  "data": [
    {"protein": "mu-class glutathione S-transferase from Fasciola gigantica (FgGST1) (enzyme) MPATLGYWKLRGLAQPIRLLLEFVGEKYEEQIYERDDGEKWFSKKFELGLDLPNLPYYIDDKCKLTQSLAILRYIADKHGMIGSTPEERARVSMIEGAAVDLRQGLSRISYDPKFEQLKEGYLKDLPTTMKMWSDFLGKNLYLRGTSVSHVDFMVYEALDAIRYLEPHCLDHFPNLQQFMSRIEALPSIKAYMESNRFIKWPLNGWHAQFGGGDAPPSHEKK", "values": [
      {"measurement": "stoichiometry N", "result": 2}
    ]}
  ]
}
